Molecular target: T1, wild-type TrpB, beta subunit of tryptophan synthase from Salmonella typhimurium (Salmonella typhimurium, UniProt P0A2K1 1-397)
T1 construct: TrpB (tryptophan synthase beta chain), Salmonella typhimurium; it carries pyridoxal phosphate as internal aldimine on bK87
T1 sequence: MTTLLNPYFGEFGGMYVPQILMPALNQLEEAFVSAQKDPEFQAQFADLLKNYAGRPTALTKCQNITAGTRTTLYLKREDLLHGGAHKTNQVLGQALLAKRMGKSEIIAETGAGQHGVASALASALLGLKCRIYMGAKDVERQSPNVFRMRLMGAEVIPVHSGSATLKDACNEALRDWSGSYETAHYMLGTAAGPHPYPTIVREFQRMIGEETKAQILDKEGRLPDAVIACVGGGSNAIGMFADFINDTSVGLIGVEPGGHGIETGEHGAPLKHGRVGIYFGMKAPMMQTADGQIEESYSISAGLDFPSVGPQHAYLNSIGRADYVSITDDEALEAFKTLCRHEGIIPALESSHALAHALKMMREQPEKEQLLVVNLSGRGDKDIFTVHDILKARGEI
Experiment: SEC
Settings: both partners purified

B1: wild-type TrpA, alpha subunit of tryptophan synthase from Salmonella typhimurium (enzyme, UniProt P00929 1-268, looked up)
chain: MERYENLFAQLNDRREGAFVPFVTLGDPGIEQSLKIIDTLIDAGADALELGVPFSDPLADGPTIQNANLRAFAAGVTPAQCFEMLALIREKHPTIPIGLLMYANLVFNNGIDAFYARCEQVGVDSVLVADVPVEESAPFRQAALRHNIAPIFICPPNADDDLLRQVASYGRGYTYLLSRSGVTGAENRGALPLHHLIEKLKEYHAAPALQGFGISSPEQVSAAVRAGAAGAISGSAIVKIIEKNLASPKQMLAELRSFVSAMKAASRA
notes: TrpA (tryptophan synthase alpha chain), Salmonella typhimurium
- binding result: binds
